Results from patent US10253076B2, “Peptides and combination of peptides for use in immunotherapy against ovarian cancer and other cancers” (immatics biotechnologies GmbH, priority 2015, dated 2019).

Target: HLA-A*02:01 (Homo sapiens, UniProt P04439, D140Y/D185E/D98H/E176V/E277Q/G131W/G231S/I119V/I121R/I166T/I218V/L300P/L318F/N151K/N90K/P208A/P217A/Q86G/Q94H/R138H/R169H/T345S)
Test: MHC binding assay (UV-ligand exchange, beta2m ELISA, peptide exchange yield)
Details: binding of HLA-class I restricted peptides to HLA-A*02:01, ranged by peptide exchange yield (UV-ligand exchange, β2m ELISA)
In short: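 Readout is a β2m ELISA: stabilized complexes captured on streptavidin, detected with HRP-conjugated anti-β2m and TMB at 450 nm, reporting peptide exchange yield. Complexes come from UV-light cleavage of a conditional ligand in HLA-A*02:01 and replacement by the candidate peptide, samples diluted 100-fold.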

Substance	Peptide exchange
566 (VIADGGIQNV; listed as Homo sapiens) [compound 566]	″++″ (≥20% = ++)
567 (SLLPLDDIVRV; listed as Homo sapiens) [compound 567]	″+++″ (≥50% = +++)
568 (TLYDIAHTPGV; listed as Homo sapiens) [compound 568]	″++++″ (≥75% = ++++)
569 (KLVDRTWTL; listed as Homo sapiens) [compound 569]	″+++″ (≥50% = +++)
570 (ALANQIPTV; listed as Homo sapiens) [compound 570]	″++″ (≥20% = ++)
571 (LLLTTIPQI; listed as Homo sapiens) [compound 571]	″+++″ (≥50% = +++)
572 (ALADLIEKELSV; listed as Homo sapiens) [compound 572]	″+++″ (≥50% = +++)
573 (ILVANAIVGV; listed as Homo sapiens) [compound 573]	″+++″ (≥50% = +++)
574 (YLLQEPPRTV; listed as Homo sapiens) [compound 574]	″++″ (≥20% = ++)
575 (YLISQVEGHQV; listed as Homo sapiens) [compound 575]	″+++″ (≥50% = +++)
576 (ILLNNSGQIKL; listed as Homo sapiens) [compound 576]	″++++″ (≥75% = ++++)
577 (VMFEDGVLMRL; listed as Homo sapiens) [compound 577]	″+++″ (≥50% = +++)
578 (FLDPGGPMMKL; listed as Homo sapiens) [compound 578]	″+++″ (≥50% = +++)
579 (NLMEMVAQL; listed as Homo sapiens) [compound 579]	″++″ (≥20% = ++)
580 (LLMENAERV; listed as Homo sapiens) [compound 580]	″++″ (≥20% = ++)
582 (TLCDVILMV; listed as Homo sapiens) [compound 582]	″+++″ (≥50% = +++)
583 (ILANDGVLLAA; listed as Homo sapiens) [compound 583]	″+++″ (≥50% = +++)
584 (ALAEVAAMENV; listed as Homo sapiens) [compound 584]	″+++″ (≥50% = +++)
585 (ALWDLAADKQTL; listed as Homo sapiens) [compound 585]	″++++″ (≥75% = ++++)
586 (KLKPGDLVGV; listed as Homo sapiens) [compound 586]	″+++″ (≥50% = +++)
587 (VMNDRLYAI; listed as Homo sapiens) [compound 587]	″+++″ (≥50% = +++)
588 (SLLPLSHLV; listed as Homo sapiens) [compound 588]	″+++″ (≥50% = +++)
589 (KLYPQLPAEI; listed as Homo sapiens) [compound 589]	″+++″ (≥50% = +++)
590 (SLIEKLWQT; listed as Homo sapiens) [compound 590]	″++″ (≥20% = ++)
591 (SMAELDIKL; listed as Homo sapiens) [compound 591]	″+++″ (≥50% = +++)

Further lines, results first:

Peptide exchange	Substance
″+++″ (≥50% = +++)	592 (RLLSAAENFL; listed as Homo sapiens) [compound 592]
″+++″ (≥50% = +++)	593 (GLPRFGIEMV; listed as Homo sapiens) [compound 593]
″+++″ (≥50% = +++)	594 (IMLKGDNITL; listed as Homo sapiens) [compound 594]
″+++″ (≥50% = +++)	595 (VLLSIYPRV; listed as Homo sapiens) [compound 595]
″+++″ (≥50% = +++)	596 (ALLDQTKTLAESAL; listed as Homo sapiens) [compound 596]
″+++″ (≥50% = +++)	597 (KLLEGQVIQL; listed as Homo sapiens) [compound 597]
″+++″ (≥50% = +++)	598 (FLFPHSVLV; listed as Homo sapiens) [compound 598]
″+++″ (≥50% = +++)	599 (YLLNDASLISV; listed as Homo sapiens) [compound 599]
″+++″ (≥50% = +++)	600 (ALAAPDIVPAL; listed as Homo sapiens) [compound 600]
″+++″ (≥50% = +++)	601 (SAFPFPVTV; listed as Homo sapiens) [compound 601]
″++++″ (≥75% = ++++)	602 (YLLEQIKLIEV; listed as Homo sapiens) [compound 602]
″+++″ (≥50% = +++)	604 (SILDRDDIFV; listed as Homo sapiens) [compound 604]
″+++″ (≥50% = +++)	605 (KLYEAVPQL; listed as Homo sapiens) [compound 605]
″+++″ (≥50% = +++)	606 (ALWETEVYI; listed as Homo sapiens) [compound 606]
″+++″ (≥50% = +++)	607 (RLYSGISGLEL; listed as Homo sapiens) [compound 607]
″+++″ (≥50% = +++)	608 (SLLSVSHAL; listed as Homo sapiens) [compound 608]

Peptide exchange	Substance
″+++″ (≥50% = +++)	609 (ALWKQLLEL; listed as Homo sapiens) [compound 609]
″+++″ (≥50% = +++)	610 (LLAPTPYIIGV; listed as Homo sapiens) [compound 610]
″++++″ (≥75% = ++++)	611 (YLLDDGTLVV; listed as Homo sapiens) [compound 611]
″+++″ (≥50% = +++)	612 (YLYNEGLSV; listed as Homo sapiens) [compound 612]
″+++″ (≥50% = +++)	613 (RLLPPGAVVAV; listed as Homo sapiens) [compound 613]
″+++″ (≥50% = +++)	614 (LLLPDQPPYHL; listed as Homo sapiens) [compound 614]
″++″ (≥20% = ++)	615 (VLPPDTDPA; listed as Homo sapiens) [compound 615]
″+++″ (≥50% = +++)	616 (VLIDEVESL; listed as Homo sapiens) [compound 616]
″+++″ (≥50% = +++)	617 (ALMYESEKVGV; listed as Homo sapiens) [compound 617]
″+++″ (≥50% = +++)	618 (VLFDSESIGIYV; listed as Homo sapiens) [compound 618]
″+++″ (≥50% = +++)	619 (ALQDRVPLA; listed as Homo sapiens) [compound 619]
″++++″ (≥75% = ++++)	620 (KLLNKIYEA; listed as Homo sapiens) [compound 620]
″++++″ (≥75% = ++++)	621 (VLMDRLPSLL; listed as Homo sapiens) [compound 621]
″+++″ (≥50% = +++)	622 (RLLGEEVVRVLQA; listed as Homo sapiens) [compound 622]
″+++″ (≥50% = +++)	623 (YLVEDIQHI; listed as Homo sapiens) [compound 623]
″+++″ (≥50% = +++)	635 (SLDSTLHAV; listed as Homo sapiens) [compound 635]
